Test [1] deals with cannabinoid receptor. The following applies: cited from earlier work.
Test [2] is described as follows: FABP binding to cannabinoids by ANS displacement (THC as ligand). The conditions noted are these: for binding to THC by ANS displacement: 2 uM protein, 20 uM ANS, 33 uM THC, decrease in fluorescence vs protein without ligand.
A short description of test [3]: FABP binding to cannabinoids by ANS displacement (CBD as ligand). The conditions noted are these: for binding to CBD by ANS displacement: 2 uM protein, 20 uM ANS, 33 uM CBD, decrease in fluorescence vs protein without ligand.
Where [4] appears, read: listed as Wild type FABP from chicken.

Take `C=C(C)[C@@H]1CCC(C)=C[C@H]1c1c(O)cc(CCCCC)cc1O` [CBD, cannabidiol]: in test [1], the “affinity for the cannabinoid receptor” value is listed as “do not have significant affinity”.

B1: Chicken FABP7 WT: Wild type chicken (Gallus gallus) FABP7, SEQ ID NO. 74 (protein, listed as Gallus gallus)
chain: MVEAFCATWKLADSHNFDEYMKALGVGFAMRQVGNVTKPTVIISSEGDKVVIRTQSTFKNTEISFKLGEEFDETTPDDRNCKSVVTLDGDKLVHVQKWDGKETNFVREIKDGRMVMTLTFGDVVAVRHYEKA
With B1, the “binding to THC by ANS displacement” value in test [2] is on record as “no, or negligible binding”; in test [2] (setting [4]) it was “no binding”. Further, the “binding to CBD by ANS displacement” value in test [3] is on record as “no, or negligible binding”; in test [3] (setting [4]), “no binding”.

B2: mdl_r5_0225_ro: Engineered chicken (Gallus gallus) FABP7 variant selected by Rosetta score, SEQ ID NO. 79 (protein, listed as Gallus gallus)
chain: MVEAFCATWKLADSHNMDEALKAWGVGFAIRQVANVTKPTVIISSEGDKVVIRMQSTFKNTEISFKLGEEFDETTADDRNCKSVVTLDGDKLVHVQKWDGKETNVVREIKDGRMVMTVTFGDVVAVRHYEKA
In the case of B2, the “binding to THC by ANS displacement” value in test [2] is “not THC”. In test [3], the “binding to CBD by ANS displacement” value is given as “binding to CBD”.

B3: mdl_r3_1403_sm: Engineered chicken (Gallus gallus) FABP7 variant selected by Smina score, SEQ ID NO. 80 (protein, listed as Gallus gallus)
chain: MVEAFCATWKLADSHNQDEGLKALGVGFAMRQLFNVDKPTVIISSEGDKVVIRIEGTVKNTEISFKLGEEFDETTADDRNCKSVVTLDGDKLVHVQKWDGKETNVVREIKDGRMVATFTFGDVVAVAHYEKA
Take B3: the “binding to THC by ANS displacement” value in test [2] is on record as “no binding”. The “binding to CBD by ANS displacement” value in test [3] is recorded as “no binding”.

B4: mdl_r5_1652_ro: Rosetta-engineered pig (Sus scrofa) FABP1 variant, SEQ ID NO. 81 (protein, listed as Sus scrofa)
chain: MNFSGKYQVQSQENFEAFMKAVGQPDELIQKGKDIKGTSEIVQNGKHFKVTITTGSKVVQAEFTLGEECEAETDTGEKVKVVVQLEGDNKAVVTAKGIKAVFELNGDIITATATLGDIVFKRISKR
In the case of B4, in test [2] (FIG. 7, ANS displacement), the “binding to THC relative to the wild type based on relative change in fluorescence” value is on record as “improved binding”. In test [3] (FIG. 7, ANS displacement), the “binding to CBD relative to the wild type based on relative change in fluorescence” value is “improved binding”.

B5: Plant FABP WT: Wild type FABP from the plant Rhodamnia argentea, SEQ ID NO. 77 (protein, listed as Rhodamnia argentea)
chain: MTEFAGVYEFVKDDGKFEEILKAMDVNFLIRKVAGKMNPNTAIDVLDDGKMAFKTITPLKTVEIHFELGKEYENKRLDGTVVKGIVTRDGNKLIQEQMSEPKFKVIRELDGPEKLIVTWMCKDIVCVREYKRIQT
In the case of B5, in test [2], the “binding to THC by ANS displacement” value is listed as “bind”. Also, in test [3], the “binding to CBD by ANS displacement” value is “bind”.
